± gives the uncertainty stated by the source.

Sequences and labels used below:
B1: POU domain, class 3, transcription factor 2, residues 262 to 338; numbered along this chain, P20265 (parent)
chain: EDTPTSDDLEQFAKQFKQRRIKLGFTQADVGLALGTLYGNVFSQTTICRFEALQLSFKNMCKLKPLLNKWLEEADSS

The variants in this data set derive from B1. Kind of data set: abundance fitness (aPCA) (normalised: wild type 0, dead -1); higher = more abundant; growth selection in yeast, the domain comes from the species named. The following applies: Homo sapiens.
For the variant EDTPTSDDLEQFAKQFDQRRIKLGFTQADVGLALGTLYGNVFSQTTICRFEALQLSFKNMCKLKPLLNKWLEEADSS [K17D], the abundance fitness is -0.949 ± 0.12. EDTPTSDDLEQFAKQFEQRRIKLGFTQADVGLALGTLYGNVFSQTTICRFEALQLSFKNMCKLKPLLNKWLEEADSS [K17E]: the abundance fitness was -0.39 ± 0.035. As for EDTPTSDDLEQFAKQFVQRRIKLGFTQADVGLALGTLYGNVFSQTTICRFEALQLSFKNMCKLKPLLNKWLEEADSS [K17V], the abundance fitness was -0.316 ± 0.029. For the variant EDTPTSDDLEQFAKQFWQRRIKLGFTQADVGLALGTLYGNVFSQTTICRFEALQLSFKNMCKLKPLLNKWLEEADSS [K17W], the abundance fitness was -0.832 ± 0.064. Then EDTPTSDDLEQFAKQFCQRRIKLGFTQADVGLALGTLYGNVFSQTTICRFEALQLSFKNMCKLKPLLNKWLEEADSS [K17C], with -0.442 ± 0.061. Take EDTPTSDDLEQFAKQFIQRRIKLGFTQADVGLALGTLYGNVFSQTTICRFEALQLSFKNMCKLKPLLNKWLEEADSS [K17I]: the abundance fitness was -0.349 ± 0.072. Take EDTPTSDDLEQFAKQFHQRRIKLGFTQADVGLALGTLYGNVFSQTTICRFEALQLSFKNMCKLKPLLNKWLEEADSS [K17H]: the abundance fitness is -0.343 ± 0.067. As for EDTPTSDDLEQFAKQFNQRRIKLGFTQADVGLALGTLYGNVFSQTTICRFEALQLSFKNMCKLKPLLNKWLEEADSS [K17N], the abundance fitness was -0.895 ± 0.22. Regarding EDTPTSDDLEQFAKQFRQRRIKLGFTQADVGLALGTLYGNVFSQTTICRFEALQLSFKNMCKLKPLLNKWLEEADSS [K17R], the abundance fitness is -0.05 ± 0.023. Then EDTPTSDDLEQFAKQFGQRRIKLGFTQADVGLALGTLYGNVFSQTTICRFEALQLSFKNMCKLKPLLNKWLEEADSS [K17G], with -0.6 ± 0.029; and EDTPTSDDLEQFAKQFPQRRIKLGFTQADVGLALGTLYGNVFSQTTICRFEALQLSFKNMCKLKPLLNKWLEEADSS [K17P], with -0.658 ± 0.087; and EDTPTSDDLEQFAKQFFQRRIKLGFTQADVGLALGTLYGNVFSQTTICRFEALQLSFKNMCKLKPLLNKWLEEADSS [K17F], with -0.9 ± 0.2. Consider EDTPTSDDLEQFAKQFSQRRIKLGFTQADVGLALGTLYGNVFSQTTICRFEALQLSFKNMCKLKPLLNKWLEEADSS [K17S], for which the abundance fitness was -0.279 ± 0.035.

For EDTPTSDDLEQFAKQFLQRRIKLGFTQADVGLALGTLYGNVFSQTTICRFEALQLSFKNMCKLKPLLNKWLEEADSS [K17L], the abundance fitness was -0.597 ± 0.044.

For EDTPTSDDLEQFAKQFMQRRIKLGFTQADVGLALGTLYGNVFSQTTICRFEALQLSFKNMCKLKPLLNKWLEEADSS [K17M], the abundance fitness was -0.171 ± 0.041. Consider EDTPTSDDLEQFAKQFTQRRIKLGFTQADVGLALGTLYGNVFSQTTICRFEALQLSFKNMCKLKPLLNKWLEEADSS [K17T], for which the abundance fitness is -0.192 ± 0.036. Regarding EDTPTSDDLEQFAKQFQQRRIKLGFTQADVGLALGTLYGNVFSQTTICRFEALQLSFKNMCKLKPLLNKWLEEADSS [K17Q], the abundance fitness is -0.025 ± 0.039. As for EDTPTSDDLEQFAKGFKQRRIKLGFTQADVGLALGTLYGNVFSQTTICRFEALQLSFKNMCKLKPLLNKWLEEADSS [Q15G], the abundance fitness is -0.141 ± 0.027. For EDTPTSDDLEQFAKLFKQRRIKLGFTQADVGLALGTLYGNVFSQTTICRFEALQLSFKNMCKLKPLLNKWLEEADSS [Q15L], the abundance fitness is -0.067 ± 0.039. Take EDTPTSDDLEQFAKIFKQRRIKLGFTQADVGLALGTLYGNVFSQTTICRFEALQLSFKNMCKLKPLLNKWLEEADSS [Q15I]: the abundance fitness was -0.068 ± 0.15. Turning to EDTPTSDDLEQFAKDFKQRRIKLGFTQADVGLALGTLYGNVFSQTTICRFEALQLSFKNMCKLKPLLNKWLEEADSS [Q15D], the abundance fitness was -0.008 ± 0.068. Take EDTPTSDDLEQFAKRFKQRRIKLGFTQADVGLALGTLYGNVFSQTTICRFEALQLSFKNMCKLKPLLNKWLEEADSS [Q15R]: the abundance fitness was -0.035 ± 0.027. For the variant EDTPTSDDLEQFAKAFKQRRIKLGFTQADVGLALGTLYGNVFSQTTICRFEALQLSFKNMCKLKPLLNKWLEEADSS [Q15A], the abundance fitness is -0.124 ± 0.034.

For EDTPTSDDLEQFAKMFKQRRIKLGFTQADVGLALGTLYGNVFSQTTICRFEALQLSFKNMCKLKPLLNKWLEEADSS [Q15M], the abundance fitness worked out at 0.051 ± 0.042. For EDTPTSDDLEQFAKHFKQRRIKLGFTQADVGLALGTLYGNVFSQTTICRFEALQLSFKNMCKLKPLLNKWLEEADSS [Q15H], the abundance fitness turned out to be 0.042 ± 0.1. Take EDTPTSDDLEQFAKWFKQRRIKLGFTQADVGLALGTLYGNVFSQTTICRFEALQLSFKNMCKLKPLLNKWLEEADSS [Q15W]: the abundance fitness was -0.033 ± 0.034. Consider EDTPTSDDLEQFAKTFKQRRIKLGFTQADVGLALGTLYGNVFSQTTICRFEALQLSFKNMCKLKPLLNKWLEEADSS [Q15T], for which the abundance fitness was -0.038 ± 0.045. On to EDTPTSDDLEQFAKNFKQRRIKLGFTQADVGLALGTLYGNVFSQTTICRFEALQLSFKNMCKLKPLLNKWLEEADSS [Q15N], for which the abundance fitness turned out to be 0.063 ± 0.11.

In the case of EDTPTSDDLEQFAKKFKQRRIKLGFTQADVGLALGTLYGNVFSQTTICRFEALQLSFKNMCKLKPLLNKWLEEADSS [Q15K], the abundance fitness was -0.003 ± 0.046. Take EDTPTSDDLEQFAKCFKQRRIKLGFTQADVGLALGTLYGNVFSQTTICRFEALQLSFKNMCKLKPLLNKWLEEADSS [Q15C]: the abundance fitness was -0.147 ± 0.059. Then EDTPTSDDLEQFAKSFKQRRIKLGFTQADVGLALGTLYGNVFSQTTICRFEALQLSFKNMCKLKPLLNKWLEEADSS [Q15S], with 0.013 ± 0.036.

Take EDTPTSDDLEQFAKPFKQRRIKLGFTQADVGLALGTLYGNVFSQTTICRFEALQLSFKNMCKLKPLLNKWLEEADSS [Q15P]: the abundance fitness was -1.08 ± 0.23. In the case of EDTPTSDDLEQFAKFFKQRRIKLGFTQADVGLALGTLYGNVFSQTTICRFEALQLSFKNMCKLKPLLNKWLEEADSS [Q15F], the abundance fitness was -0.187 ± 0.13. With EDTPTSDDLEQFAKYFKQRRIKLGFTQADVGLALGTLYGNVFSQTTICRFEALQLSFKNMCKLKPLLNKWLEEADSS [Q15Y] the figure was 0.092 ± 0.076; with EDTPTSDDLEQFAKEFKQRRIKLGFTQADVGLALGTLYGNVFSQTTICRFEALQLSFKNMCKLKPLLNKWLEEADSS [Q15E], 0.018 ± 0.038.

For the origin of these results see the Human Domainome abundance scans (Beltran et al. 2025).
